The values below come from US8652796 (Harvard, dated 2014).

The target in assay [1] is T1, T Antigen-HA fusion protein (SV40, UniProt P03070 1-708).
T1 construct: Construct is not described
As to the kind of experiment: fluorescence microscopy of COS cells expressing T Antigen-HA with GFP-471-721.

The target in the next assay is T2, SV40 T antigen (SV40, UniProt P03070 1-708).
T2 construct: also called T-Ag; viral (SV40) T antigen
As to the kind of experiment: recruitment to inclusions, fluorescence microscopy of cells.

T1 sequence (P03070 1-708, tags or fused parts left off): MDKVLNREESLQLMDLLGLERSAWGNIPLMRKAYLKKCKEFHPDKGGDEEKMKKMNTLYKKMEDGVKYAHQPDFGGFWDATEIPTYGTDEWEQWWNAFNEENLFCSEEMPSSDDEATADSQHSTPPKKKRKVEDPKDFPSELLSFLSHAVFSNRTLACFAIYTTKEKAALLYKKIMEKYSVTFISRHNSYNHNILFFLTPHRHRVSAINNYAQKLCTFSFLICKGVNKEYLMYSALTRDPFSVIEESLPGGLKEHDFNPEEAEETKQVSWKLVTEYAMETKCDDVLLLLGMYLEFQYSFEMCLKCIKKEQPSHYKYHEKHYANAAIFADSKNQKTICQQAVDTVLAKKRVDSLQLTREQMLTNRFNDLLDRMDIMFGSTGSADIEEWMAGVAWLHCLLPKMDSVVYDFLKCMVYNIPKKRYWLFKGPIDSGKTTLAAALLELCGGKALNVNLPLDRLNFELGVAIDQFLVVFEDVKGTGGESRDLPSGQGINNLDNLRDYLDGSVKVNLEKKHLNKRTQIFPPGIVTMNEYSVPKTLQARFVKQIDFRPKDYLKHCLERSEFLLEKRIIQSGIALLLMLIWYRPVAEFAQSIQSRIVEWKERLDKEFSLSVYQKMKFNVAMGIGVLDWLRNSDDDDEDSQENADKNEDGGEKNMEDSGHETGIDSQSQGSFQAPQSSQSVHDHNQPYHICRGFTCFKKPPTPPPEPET

B1: GFP/µNS(471-721) (other)
chain: SNDVTDGIKLQLDASRQCHECPVLQQKVVELEKQIIMQKSIQSDPTPVALQPLLSQLRELSSEVTRLQMELSRAQSLNAQLEADVKSAQSCSLDMYLRHHTCINGHAKEDELLDAVVAPDVRREIMEKRSEVRQGWCERISKEAAAKCQTVIDDLTLMNGKQAQEITELRDSAEKYEKQIAELVSTITQNQITYQQELQALVAKNVELDALNQRQAKSLRITPSLLSATPIDSVDDVADLIDFSVPTDEL
notes: Expressed from pEGFP-C1-M3(471-721); GFP at the N terminus of µNS residues 471-721; also called GFP-471-721 fusion protein; EGFP/µNS(471-721); not shown: enhanced Aequorea victoria green fluorescent protein (EGFP) as encoded by the pEGFP-C1 vector (BD Biosciences); the enha
Consider B1, for which the binding result (in assay [1]; with SV40 T antigen) was “no binding” throughout.
